Measured values taken from paper PMC10767033 (Scientific Reports, 2024).

Molecular target: T1, galectin-3 (Homo sapiens (assumed; ), UniProt P17931, biotin (biotinylated galectin-3))
T1 construct: galectin-3
Experiment: ELISA; biotinylated galectin-3 (10 µg/mL) captured on NeutrAvidin-coated wells blocked with 3% skim milk; VHH at 800, 400 and 200 nM in solution, 30 min; detected with HRP anti-FLAG antibody; absorbance at 450 nm
Conditions: both partners purified

T1 sequence (P17931 whole entry): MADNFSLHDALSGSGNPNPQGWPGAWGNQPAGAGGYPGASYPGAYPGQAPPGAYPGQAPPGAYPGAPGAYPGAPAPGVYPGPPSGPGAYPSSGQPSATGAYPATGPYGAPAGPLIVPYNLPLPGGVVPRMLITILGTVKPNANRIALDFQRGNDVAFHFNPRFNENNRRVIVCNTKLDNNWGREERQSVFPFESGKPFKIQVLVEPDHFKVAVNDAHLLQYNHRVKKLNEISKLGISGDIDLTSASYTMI

B1: wild-type VHH (3DWT) (VHH)
VHH: QVQLVESGGGSVQAGGSLRLSCTASGGSEYSYSTFSLGWFRQAPGQEREAVAAIASMGGLTYYADSVKGRFTISRDNAKNTVTLQMNNLKPEDTAIYYCAAVRGYFMRLPSSHNFRYWGQGTQVTVSS
notes: framework 1 of the VHH of PDB 3DWT; CDR1 (13 aa) of the wild type; framework 2 of the VHH of PDB 3DWT; CDR2 (10 aa) of the wild type; framework 3 of the VHH of PDB 3DWT; CDR3 (16 aa) of the wild type; framework 4 of the VHH of PDB 3DWT; also called wild-type 3DWT; source: E. coli BL21(DE3), purified (IMAC, SEC)
  binding result: no binding (tested: 800 nM, 400 nM, and 200 nM of VHHs)
